Values belong to the substance of their own block, whether it stands above or below them.
Assays:
[1] = biological target: His-tagged TclI N-terminal domain (residues 1-85) (M. caseolyticus)
[2] = biological target: a tagged version of TclJ or TclN; assay: pull-down; nickel copurification: TclI, TclJ and TclN all co-expressed in E. coli, one of them His6-tagged; lysate on Ni-NTA agarose beads, 4°C, 50 mM HEPES pH 7.8, 300 mM NaCl, 60 mM imidazole; SDS-PAGE with Coomassie stain
[3] = biological target: N-terminally His-tagged TclI (M. caseolyticus); assay: SEC; purified TclIJN complex (TclI, TclJ and TclN as a mixture); Yarra 1.8 μm X150 column, 100 mM sodium phosphate pH 6.8, 0.023% NaN3, 25 °C, 1 μg/μL

percentage of TclE peptides fully modified (six thiazoles) by LC-MS after co-expression of GST-TclE Δ18 with TclI, TclJ and TclN in E. coli [1]: 71.6%
Substance: GST-TclE Δ18 leader truncation (peptide)

stoichiometry N (TclI per tagged enzyme (densitometry)) [2]: 2 to 8
Substance: TclI (untagged) (natural protein)

stoichiometry N (TclI per TclJ) [3]: 2
Substance: TclJ (untagged) (enzyme)

stoichiometry N (TclI per TclN) [3]: 2
Substance: TclN (untagged) (enzyme)

From doi:10.1101/2023.10.23.563616
